Assay results from publication PMC2858642.

Target: His6-Bcl-2ΔTM G154A/G155A mutant
Test: fluorescence polarisation

- Kd: 30 nM
Substance: His6-Bcl-2ΔTM G154A/G155A mutant (domain or fragment)
